Reference: the RNAGym collection of RNA variant scans (doi:10.1073/pnas.2313332121)

B1: TPR t1 (parent)
chain: GACCAAUCUGCCCUCAGAGCUCGAGAACAUCUUCGGAUGCAGAGGAGGCAGGCUUCGGUGGCGCGAUAGCGCCAACGUCCUCAACCUCCAAUGCAUCCCACCACAUGAUGAUGCCUGAAGAGCCUUGGUUUUUUG

Variants of: B1
Experiment: polymerase ribozyme fitness, log enrichment relative to wild type (log ratio); higher = more active; in vitro selection for triplet polymerase activity
Summary of the method: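 Genotype fitness is the logarithm of its enrichment divided by wild-type enrichment, using inverse-variance-weighted averages of replicates. That logarithm is base 2. Enrichment was measured by Illumina sequencing of input and output libraries from one triplicate in vitro selection round, with frozen incubation at −7 °C, on PCR-built, transcribed mutant libraries of each subunit of a heterodimeric triplet polymerase ribozyme, retaining genotypes with ≥10 input reads and ≥1 read per output.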

Q: With A2G U9G U21C G128A as the variant, how does the “polymerase ribozyme fitness (log ratio)” value read?
A: The value was -4.35.

Q: Which “polymerase ribozyme fitness (log ratio)” value does the source give for A2G C28U C70U G110U here?
A: Its value is -3.19.

Q: For C3U C13U C34U C62U C85U, which “polymerase ribozyme fitness (log ratio)” value is on record?
A: Its value is -5.63.

Q: Which “polymerase ribozyme fitness (log ratio)” value does the source give for A2G G57C U59G A100U U106C here?
A: Its value is -0.973.

Q: For C3A C12G C56G C123U, which “polymerase ribozyme fitness (log ratio)” value is on record?
A: The value was -0.749.

Q: For C3U C12A G60A, which “polymerase ribozyme fitness (log ratio)” value is on record?
A: The value was -1.22.

Q: For A2U U54A C72A C101G U129A U130A, which “polymerase ribozyme fitness (log ratio)” value is on record?
A: The value was -2.15.

Q: For A2G U32C C40G C49A, which “polymerase ribozyme fitness (log ratio)” value is on record?
A: The value was -1.76.

Q: For A2G C4G C8G G47U U54C C72A, which “polymerase ribozyme fitness (log ratio)” value is on record?
A: The value was -2.53.

Q: For C3U C40U G117U, which “polymerase ribozyme fitness (log ratio)” value is on record?
A: Its value is -3.25.

Q: Which “polymerase ribozyme fitness (log ratio)” value does the source give for C3G U9G A43G G61A C114A U131A here?
A: The value was -3.

Q: Which “polymerase ribozyme fitness (log ratio)” value does the source give for C3U A6U G57A G120C here?
A: The value was 0.153.

Q: Which “polymerase ribozyme fitness (log ratio)” value does the source give for C3U G17C G61C G117U here?
A: Its value is -5.52.

Q: For C3U A37U C40A G60U, which “polymerase ribozyme fitness (log ratio)” value is on record?
A: The value was -1.23.

Q: With C3U U106A as the variant, how does the “polymerase ribozyme fitness (log ratio)” value read?
A: Its value is -0.258.

Q: For C3G C115A, which “polymerase ribozyme fitness (log ratio)” value is on record?
A: Its value is -2.96.

Q: Which “polymerase ribozyme fitness (log ratio)” value does the source give for A2G C115A here?
A: The value was -0.495.

Q: For C3U C73A G135U, which “polymerase ribozyme fitness (log ratio)” value is on record?
A: The value was -1.52.

Q: With C3A G39A A68G G128U as the variant, how does the “polymerase ribozyme fitness (log ratio)” value read?
A: The value was -4.5.

Q: Which “polymerase ribozyme fitness (log ratio)” value does the source give for C3G G63C A68C A111U U112G G113A here?
A: Its value is -5.32.

Q: Which “polymerase ribozyme fitness (log ratio)” value does the source give for C3U C88A here?
A: Its value is -1.53.

Q: With C3G C88G U112G as the variant, how does the “polymerase ribozyme fitness (log ratio)” value read?
A: Its value is -2.52.

Q: For C3G G48C C89U U132C, which “polymerase ribozyme fitness (log ratio)” value is on record?
A: The value was -1.66.

Q: For C3G C22A C124G G128C, which “polymerase ribozyme fitness (log ratio)” value is on record?
A: The value was -3.09.

Q: Which “polymerase ribozyme fitness (log ratio)” value does the source give for A2U C11U U21A here?
A: Its value is -1.96.

Q: Which “polymerase ribozyme fitness (log ratio)” value does the source give for C3A U9C C11A C49G U109A U126G here?
A: Its value is -6.11.

Q: With C3A A5C C115A as the variant, how does the “polymerase ribozyme fitness (log ratio)” value read?
A: Its value is 1.15.

Q: With A2U A5C C62A G93C as the variant, how does the “polymerase ribozyme fitness (log ratio)” value read?
A: The value was -5.08.

Q: For C3A A18G G19C A90U C123U U129G, which “polymerase ribozyme fitness (log ratio)” value is on record?
A: The value was -0.538.

Q: With C4A G52A C53A C72U A90U U130C as the variant, how does the “polymerase ribozyme fitness (log ratio)” value read?
A: Its value is -3.37.

Q: With C3U C11U U33A as the variant, how does the “polymerase ribozyme fitness (log ratio)” value read?
A: The value was -4.58.

Q: With C4A C72U G117C U131A as the variant, how does the “polymerase ribozyme fitness (log ratio)” value read?
A: Its value is -5.79.

Q: With A2G C22U G61A A75U as the variant, how does the “polymerase ribozyme fitness (log ratio)” value read?
A: Its value is -4.04.

Q: With C3U C20U as the variant, how does the “polymerase ribozyme fitness (log ratio)” value read?
A: The value was -1.7.

Q: Which “polymerase ribozyme fitness (log ratio)” value does the source give for C4A C70G C79A C114U here?
A: The value was -5.9.

Q: With C3U C13G A111C as the variant, how does the “polymerase ribozyme fitness (log ratio)” value read?
A: The value was -1.32.

Q: For C3U G61A U78G U112G, which “polymerase ribozyme fitness (log ratio)” value is on record?
A: Its value is -0.547.

Q: Which “polymerase ribozyme fitness (log ratio)” value does the source give for C3A A16U C73G here?
A: The value was -3.81.

Q: With C3U C11A G120C as the variant, how does the “polymerase ribozyme fitness (log ratio)” value read?
A: Its value is 0.399.

Q: Which “polymerase ribozyme fitness (log ratio)” value does the source give for C3A C72U C94G here?
A: The value was -3.51.

Q: With C3A G52U C64U as the variant, how does the “polymerase ribozyme fitness (log ratio)” value read?
A: The value was -2.19.

Q: For C3U C8A A16U U33A G44A G120C, which “polymerase ribozyme fitness (log ratio)” value is on record?
A: Its value is -6.36.

Q: Which “polymerase ribozyme fitness (log ratio)” value does the source give for C4A G48C G61A U81C U96A here?
A: The value was -3.76.

Q: Which “polymerase ribozyme fitness (log ratio)” value does the source give for C3U C102U G117U here?
A: Its value is -4.61.

Q: Which “polymerase ribozyme fitness (log ratio)” value does the source give for C3U C8G G45U U54A C72U U87C U130A here?
A: Its value is -1.62.

Q: For C3G G19A C20G C88G U112G C115U, which “polymerase ribozyme fitness (log ratio)” value is on record?
A: Its value is -5.61.

Q: With A2G G113A as the variant, how does the “polymerase ribozyme fitness (log ratio)” value read?
A: Its value is -1.6.

Q: With C3U C8A C73G G120C G135C as the variant, how does the “polymerase ribozyme fitness (log ratio)” value read?
A: Its value is 1.56.

Q: With C3U C64U G71U C85G A121U as the variant, how does the “polymerase ribozyme fitness (log ratio)” value read?
A: The value was -4.22.

Q: For C3A C4G G10A G61A C123G, which “polymerase ribozyme fitness (log ratio)” value is on record?
A: Its value is 0.689.

Q: With C3U U81G as the variant, how does the “polymerase ribozyme fitness (log ratio)” value read?
A: The value was -4.04.

Q: Which “polymerase ribozyme fitness (log ratio)” value does the source give for C3U C40G G42U C82U C89U C94U here?
A: The value was -3.64.

Q: Which “polymerase ribozyme fitness (log ratio)” value does the source give for C3U C86G G113C here?
A: The value was -3.51.

Q: With A2U C56A C64U G120C as the variant, how does the “polymerase ribozyme fitness (log ratio)” value read?
A: Its value is -3.86.

Q: Which “polymerase ribozyme fitness (log ratio)” value does the source give for C3G C124A here?
A: The value was -0.505.

Q: For C3A A5U G36C G47C A75U G77A A105G U106A C123U U130C, which “polymerase ribozyme fitness (log ratio)” value is on record?
A: The value was -2.36.

Q: For C3A G61A, which “polymerase ribozyme fitness (log ratio)” value is on record?
A: Its value is -1.23.

Q: With C3G C11A C12U G58C C62U as the variant, how does the “polymerase ribozyme fitness (log ratio)” value read?
A: The value was -4.45.

Q: Which “polymerase ribozyme fitness (log ratio)” value does the source give for C3A U59G U78A C89A G120U here?
A: Its value is -3.26.

Q: With A2G U78A G128A as the variant, how does the “polymerase ribozyme fitness (log ratio)” value read?
A: The value was -2.62.

Q: For C3U G17C G117U, which “polymerase ribozyme fitness (log ratio)” value is on record?
A: Its value is -6.24.

Q: Which “polymerase ribozyme fitness (log ratio)” value does the source give for A2U G77C U116A C124A U130C here?
A: The value was -0.208.

Q: Which “polymerase ribozyme fitness (log ratio)” value does the source give for C3G A41C here?
A: Its value is -3.54.

Q: For A2G G52C G60U, which “polymerase ribozyme fitness (log ratio)” value is on record?
A: Its value is 0.0795.

Q: For C3A C79A G120U G128A, which “polymerase ribozyme fitness (log ratio)” value is on record?
A: Its value is -3.06.

Q: Which “polymerase ribozyme fitness (log ratio)” value does the source give for C3A C11U C99U here?
A: Its value is -4.11.

Q: For C3U C94U U106C, which “polymerase ribozyme fitness (log ratio)” value is on record?
A: Its value is -0.635.

Q: Which “polymerase ribozyme fitness (log ratio)” value does the source give for C4A G10A C53G G60U C70U A74U C123A U131C here?
A: The value was -1.36.

Q: With C3A C97A C114U as the variant, how does the “polymerase ribozyme fitness (log ratio)” value read?
A: Its value is -5.53.

Q: For A2G C40U U78A C86U G117A, which “polymerase ribozyme fitness (log ratio)” value is on record?
A: The value was -3.78.

Q: With C3U G69U A105G G117C as the variant, how does the “polymerase ribozyme fitness (log ratio)” value read?
A: Its value is -4.98.

Q: Which “polymerase ribozyme fitness (log ratio)” value does the source give for A2G C62A C104U here?
A: The value was -0.429.

Q: Which “polymerase ribozyme fitness (log ratio)” value does the source give for C3U G47U A105G here?
A: Its value is -4.56.

Q: Which “polymerase ribozyme fitness (log ratio)” value does the source give for C3U G17U G47A U96A U106A C115A U130G here?
A: Its value is -2.25.

Q: For C3A C62U G93C, which “polymerase ribozyme fitness (log ratio)” value is on record?
A: The value was -2.92.

Q: With A2U C79U C104A as the variant, how does the “polymerase ribozyme fitness (log ratio)” value read?
A: Its value is -4.26.

Q: Which “polymerase ribozyme fitness (log ratio)” value does the source give for C3U A29U here?
A: Its value is -1.77.

Q: For C3U G45U G60U A91G C123U, which “polymerase ribozyme fitness (log ratio)” value is on record?
A: The value was -2.3.

Q: For C3U C12A C79G, which “polymerase ribozyme fitness (log ratio)” value is on record?
A: The value was -2.97.

Q: With C4A G36A C73A as the variant, how does the “polymerase ribozyme fitness (log ratio)” value read?
A: Its value is -3.19.

Q: With C3A G71A U130C as the variant, how does the “polymerase ribozyme fitness (log ratio)” value read?
A: Its value is -0.935.

Q: Which “polymerase ribozyme fitness (log ratio)” value does the source give for C3A C8A C40G G61U A100C here?
A: The value was -2.95.

Q: For A2G U54A G60C U106G, which “polymerase ribozyme fitness (log ratio)” value is on record?
A: Its value is -2.29.
